Where two headings read alike, the source gives them in different places.
Key:
Assay in all cases: sandwich ELISA, STAT protein coated at 0.5 µg/mL
STAT 3 protein [1] = target: T1, STAT 3 protein (UniProt P40763 1-770, limits assumed)
STAT 1 protein [2] = target: T2, STAT 1 protein (UniProt P42224 1-750, limits assumed)
T2 sequence (looked up): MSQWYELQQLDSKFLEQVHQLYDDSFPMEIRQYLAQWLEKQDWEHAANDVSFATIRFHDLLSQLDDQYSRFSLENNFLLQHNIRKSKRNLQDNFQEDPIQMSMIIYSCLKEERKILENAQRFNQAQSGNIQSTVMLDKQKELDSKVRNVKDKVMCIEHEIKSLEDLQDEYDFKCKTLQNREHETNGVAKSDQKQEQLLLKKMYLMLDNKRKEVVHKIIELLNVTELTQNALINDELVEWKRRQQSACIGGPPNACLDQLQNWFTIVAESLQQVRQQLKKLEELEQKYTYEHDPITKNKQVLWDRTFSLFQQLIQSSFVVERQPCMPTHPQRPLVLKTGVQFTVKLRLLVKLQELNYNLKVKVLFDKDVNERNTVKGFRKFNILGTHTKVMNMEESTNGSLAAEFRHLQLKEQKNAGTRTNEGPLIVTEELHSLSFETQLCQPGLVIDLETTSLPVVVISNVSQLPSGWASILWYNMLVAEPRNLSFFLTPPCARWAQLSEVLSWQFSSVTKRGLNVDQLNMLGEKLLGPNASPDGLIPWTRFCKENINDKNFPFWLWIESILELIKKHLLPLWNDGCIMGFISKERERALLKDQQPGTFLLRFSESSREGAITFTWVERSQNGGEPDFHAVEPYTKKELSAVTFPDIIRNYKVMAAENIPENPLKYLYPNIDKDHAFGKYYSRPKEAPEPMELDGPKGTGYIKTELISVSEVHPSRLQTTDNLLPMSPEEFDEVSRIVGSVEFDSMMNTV

STAT 4 protein [3] = target: T3, STAT 4 protein (UniProt Q14765 1-748, limits assumed)
T3 sequence (looked up): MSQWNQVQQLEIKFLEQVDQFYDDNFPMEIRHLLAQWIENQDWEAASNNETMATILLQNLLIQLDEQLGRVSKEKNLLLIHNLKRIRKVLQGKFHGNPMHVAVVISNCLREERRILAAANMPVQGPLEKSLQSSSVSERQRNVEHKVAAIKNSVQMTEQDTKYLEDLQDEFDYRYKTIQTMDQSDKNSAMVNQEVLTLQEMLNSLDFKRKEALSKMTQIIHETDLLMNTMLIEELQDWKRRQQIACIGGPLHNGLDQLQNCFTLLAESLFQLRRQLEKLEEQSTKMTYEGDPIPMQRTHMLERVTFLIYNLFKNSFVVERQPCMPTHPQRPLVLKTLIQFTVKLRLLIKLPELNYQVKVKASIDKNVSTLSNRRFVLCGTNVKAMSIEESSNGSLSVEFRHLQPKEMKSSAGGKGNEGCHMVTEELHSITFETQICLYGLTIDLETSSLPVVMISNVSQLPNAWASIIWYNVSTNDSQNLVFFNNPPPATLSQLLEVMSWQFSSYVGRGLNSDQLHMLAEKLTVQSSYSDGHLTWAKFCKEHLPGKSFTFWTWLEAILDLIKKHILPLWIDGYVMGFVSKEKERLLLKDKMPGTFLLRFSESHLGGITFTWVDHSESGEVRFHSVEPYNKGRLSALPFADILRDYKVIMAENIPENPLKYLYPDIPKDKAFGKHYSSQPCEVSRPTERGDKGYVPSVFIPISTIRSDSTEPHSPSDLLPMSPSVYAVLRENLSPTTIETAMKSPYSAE

STAT 5a protein [4] = target: T4, STAT 5a protein (UniProt P42229 1-794, limits assumed)
T4 sequence (looked up): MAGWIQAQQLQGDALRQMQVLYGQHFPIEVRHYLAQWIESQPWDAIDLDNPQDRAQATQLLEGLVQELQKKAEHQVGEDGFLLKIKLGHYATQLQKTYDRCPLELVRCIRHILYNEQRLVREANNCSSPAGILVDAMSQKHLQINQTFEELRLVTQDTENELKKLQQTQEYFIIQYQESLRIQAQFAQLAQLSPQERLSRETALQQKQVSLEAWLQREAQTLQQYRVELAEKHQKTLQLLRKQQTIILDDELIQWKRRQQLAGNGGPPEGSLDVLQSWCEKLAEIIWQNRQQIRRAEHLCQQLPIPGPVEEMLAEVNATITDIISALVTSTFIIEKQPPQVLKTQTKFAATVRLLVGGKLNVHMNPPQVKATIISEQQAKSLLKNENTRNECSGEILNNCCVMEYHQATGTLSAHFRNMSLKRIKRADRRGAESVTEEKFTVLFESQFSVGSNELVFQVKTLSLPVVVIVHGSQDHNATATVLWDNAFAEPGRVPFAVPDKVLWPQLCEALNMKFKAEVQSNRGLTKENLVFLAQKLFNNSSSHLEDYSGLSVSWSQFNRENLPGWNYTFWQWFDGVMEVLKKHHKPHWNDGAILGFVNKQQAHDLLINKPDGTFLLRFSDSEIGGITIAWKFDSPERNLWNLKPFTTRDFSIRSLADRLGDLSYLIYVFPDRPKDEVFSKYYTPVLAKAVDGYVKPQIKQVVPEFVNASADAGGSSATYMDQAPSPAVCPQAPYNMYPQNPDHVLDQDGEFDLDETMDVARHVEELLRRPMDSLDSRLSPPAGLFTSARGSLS

STAT 3 protein [5] = target: T1, STAT 3 protein; remark: listed apart in the source
STAT 2 protein = STAT 2 protein (UniProt P52630 1-851, limits assumed)
STAT 2 protein, sequence (P52630 whole entry): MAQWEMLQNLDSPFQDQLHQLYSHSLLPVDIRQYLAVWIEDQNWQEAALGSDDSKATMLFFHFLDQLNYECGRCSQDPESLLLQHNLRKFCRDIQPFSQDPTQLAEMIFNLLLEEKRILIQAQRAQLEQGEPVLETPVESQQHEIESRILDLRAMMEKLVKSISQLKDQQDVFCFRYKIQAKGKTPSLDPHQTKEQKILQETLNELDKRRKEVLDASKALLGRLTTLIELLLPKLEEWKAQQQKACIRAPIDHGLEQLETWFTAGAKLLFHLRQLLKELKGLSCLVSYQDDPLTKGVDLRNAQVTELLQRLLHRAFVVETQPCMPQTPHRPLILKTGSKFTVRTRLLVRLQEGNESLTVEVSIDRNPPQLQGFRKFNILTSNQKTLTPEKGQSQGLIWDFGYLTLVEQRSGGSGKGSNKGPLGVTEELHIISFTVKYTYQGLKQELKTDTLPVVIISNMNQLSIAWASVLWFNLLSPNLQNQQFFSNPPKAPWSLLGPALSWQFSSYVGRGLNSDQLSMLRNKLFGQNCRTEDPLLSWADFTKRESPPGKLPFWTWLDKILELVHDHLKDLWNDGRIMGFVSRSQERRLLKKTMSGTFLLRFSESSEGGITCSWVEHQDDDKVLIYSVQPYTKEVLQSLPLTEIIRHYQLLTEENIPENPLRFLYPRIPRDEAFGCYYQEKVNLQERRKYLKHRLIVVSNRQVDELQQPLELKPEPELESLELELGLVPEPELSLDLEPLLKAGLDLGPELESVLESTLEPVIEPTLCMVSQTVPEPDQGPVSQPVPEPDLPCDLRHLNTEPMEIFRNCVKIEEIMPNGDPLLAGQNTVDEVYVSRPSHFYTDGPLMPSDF

STAT 1 protein [6] = target: T2, STAT 1 protein; remark: listed apart in the source
STAT 4 protein [7] = target: T3, STAT 4 protein; remark: listed apart in the source
STAT 5a protein [8] = target: T4, STAT 5a protein; remark: listed apart in the source

Mean OD450 (STAT 3 protein [1]): 0.063 OD450
Mean OD450 (STAT 1 protein [2]): 0.026 OD450
Mean OD450 (STAT 4 protein [3]): 0.083 OD450
Mean OD450 (STAT 5a protein [4]): 0.107 OD450
Mean OD450 (STAT 3 protein [5]): 0.431 OD450
Mean OD450 (STAT 2 protein): 0.186 OD450
Mean OD450 (STAT 1 protein [6]): 0.159 OD450
Mean OD450 (STAT 4 protein [7]): 0.833 OD450
Mean OD450 (STAT 5a protein [8]): 0.821 OD450
B1: anti-STAT3 VHH13 (SEQ ID NO:3) sdAb (VHH)
VHH: HVQLVESGGGSVQAGGSLRLSCAASGANGGRSCMGWFRQVPGKEREGVSGISTGGLITYYADSVKGRFTISQDNTKNTLYLQMNSLKPEDTAMYYCATSRFDCYRGSWFNRYMYNSWGQGTQVTVSS
